The data set can be described thus: label from the status in PepcDB records.
Consider “MAKKPAAHATKPKPWTEMATHLVDVAMGRKPADLVIRNGRWVNVHSGEIIAGTDIAIAGGRFAYCGPNASHAIGQGTKVVDAGGRYLVPGLCDAHMHVESGMVTVTEFCRAVIPHGTTSMFIDPHEIANVLGLPGVRLMHDEAVAMPINVHVQMPSCVPSAPGLEHAGAELTVADVAEAMTWENIIGLGEVMNFPGVAANDPVMSGEIAATVRAGKTVGGHYASRDLGLPFHGYVAGGPEDDHEGTRAEDAIARVRQGMKAMLRLGSAWYDVASQIKAVTEGGIDPRNFILCTDDSHSGTLVHEGHMDRVVRHAIQQGLKPVTAIQMATINTAQHFRLEREIGSIAPGRLADLLIVSDLAAMTIDEVYARGVRLAKGGKLDIDIPAYDYPKTAKNTVKLGKKLRAGDFDITAPKGANEVRVRVIGVIENQAPTRALEADLPVEDGLVAMDRRNDVCQIALVERHRGTGGVTNAFVSGFGYMGDCAMASSVAHDAHHIICVGTNKQDMALAVNRLGQVGGGVVLFSKGKELALVEMPIAGLMSDERAEIVAAKAEKLTEAMRKMGCSLNNAYMQHSLLALVVIPELRISDVGLIDVTTFQKVDLFV”, for which the protein production entry is reported as “failed”. For “MAKKTSSLLSRRRTRRPGEPPLDLGSIPWLGYALDFGKDAASFLTRMKEKHGDIFTILVGGRYVTVLLDPHSYDAVVWEPRTRLDFHAYAIFLMERIFDVQLPHYSPSDEKARMKLTLLHRELQALTEAMYTNLHAVLLGDATEAGSGWHEMGLLDFSYSFLLRAGYLTLYGIEALPRTHESQAQDRVHSADVFHTFRQLDRLLPKLARGSLSVGDKDHMCSVKSRLWKLLSPARLARRAHRSKWLESYLLHLEEMGVSEEMQARALVLQLWATQGNMGPAAFWLLLFLLKNPEALAAVRGELESILWQAEQPVSQTTTLPQKVLDSTPVLDSVLSESLRLTAAPFITREVVVDLAMPMADGREFNLRRGDRLLLFPFLSPQRDPEIYTDPEVFKYNRFLNPDGSEKKDFYKDGKRLKNYNMPWGAGHNHCLGRSYAVNSIKQFVFLVLVHLDLELINADVEIPEFDLSRYGFGLMQPEHDVPVRYRIRPHHHH”, the protein production entry is reported as “not failed”. Then “MAKKVAVLAVNPVNGCGLFQYLEAFFENGISYKVFAVSDTKEIKTNSGMVLIVDDVIANLKGHEDEFDALVFSCGDAVPVFQQYANQPYNVDLMEVIKTFGEKGKMMIGHCAGAMMFDFTGITKGKKVAVHPLAKPAIQNGIATDEKSEIDGNFFTAQDENTIWTMLPKVIEALKLEHHHHHH”, with “not failed”; and “MAKMIILPKLVQKSVVSPKQTSQERVVTSTFSPPKPAGENISVQRRCELSEYHASGHVISHLPPPFAVAKPTPTTSLLPQPVRLINADAEDASCSSTPSWRIKKSLTCVCFNRKRAYERICSNLTPLQEERLKRLRKRMKNYYDASRPDHQDALRALWSATYPDEKLQDLISDQWKNMGWQGKDPSTDFRGAGFISLENLLFFAKTFSTSFQRLLNKQGGKRAAWEYPFAVAGVNITFMIMQMLDLEASKPRSFIRLVFLQMLSESEWAFDLLYCVAFVVMDKQWLDKNATYMEFNDVLRCTRGQLERELMMDDVFRIEDMPSFSLLS”, with “failed”; and “MAKNDKINFSTPSGFPEFLPSEKRLELYLLDTIRRVYESYGFTPIETPAVERLEVLQAKGNQGDNIIYGLEPILPPNRQAEKDKSGDTGSEARALKFDQTVPLAAYIARHLNDLTFPFARYQMDVVFRGERAKDGRFRQFRQCDIDVVGREKLSLLYDAQMPAIITEIFEAVNIGDFVIRINNRKVLTGFFQSLNISETQIKSCISIIDNLEKIGEAKVKLELEKEGINPEQTQKIIDFVKIDGSVDDVLDKLKHLSQTLPESEQFNLGVSELETVITGVRNLGVPDKRFCIDLAIARGLNYYTGTVYETTLIGHEALGSICSGGRYEELVGTFIGEKMPGVGISIGLTRLISRLLKAGILNTLPPTPAQVVVVNMQDELMPTYLKVSQQLRQAGLNVITNFEKRQLGKQFQAADKQGIRFCVIIGADEAAAQKSSLKDLQSGEQVEVALADLAEEIKRRLT”, with “not failed”.

Turning to “MAKNQWNELLLEQVRQLPMASSKEHVQLRLNLLIVEASKQKKTIPTEFELIFQAYQLSRSGKLIDSISVFFDAINFSQQNQQEFLICFCHYNIGTLYGMLGNYFYAQKFLAKAEKMQQFCDGYITGIIKNNIGDIFRQIGNFNEALIYLTQAAELLSQHGPKTAAALSYFNIAEIKAKQFLFTEANELLENLYQDIKNEPRYLGFYYKIKAEIASHSGEFEQADKLHLLSIENMQISEHDYYYAEMILEYCHFLTSCLQYKKLDQFIALGLAVAKKIESDKLIDGFNDIILLRIKDIDDINIREKHYQTLTSSLLNSRRELLKREGDYLQQLYRLNVAKLNLSTMKSLSDNLAVINKVGHYINTSSDIKNALPQIQQDLASLFQTDTLALGFYNSEQDQITIHYLDNNLPAQTPYITDCKSEATYMSYCIKSNSAFYFNHMNSEQKVAMLGDRCDSKVQFKSAMFSPITINGEVKGVFTIQARESYQYQTFHFELFSQLISYISIALENQYNRQQLLHLSQTDHLTQIWNRKSLEAHFNQLKQQQNQEYTGIMIDIDHYKEYNDTYGHIAGDEVLIQVSRLIKQGFHSLETQVYRYGGDEFFVLIPSIKPEKIRQKLDKLLIEVKKLLIPHKASTCSCYLSISVGIGYNKDPENQLSLNSLVNTADRALYQAKENGRNCYFELAHIKETMY”, the protein production entry is reported as “failed”. With “MAKNTLSFVCQNCGAAYNRWQGKCESCGEWNTLAEEDTSGSVPVSIRSKRKGRTFALESLAGKSPDAPRLSSGMTELDRVTGGGFVRGSVLLVGGDPGIGKSTLLTQATSLMARAGHRIVYISGEEAIAQVRLRAERLGLSDAPVQLAAETSVEDIVSTLSEGAVPRLIVIDSIQTMWTDTVESAPGTVTQVRASAQALIRFAKKTGAAIILVGHVTKDGQIAGPRVVEHMVDAVMSFEGEGSQQFRILRAVKNRFGPTDEIGVFEMTGLGLREVTNPSELFLSERDLGTPGTAVFAGIEGTRPVLVELQALVAPTSLGTPRRAVVGWDPSRLSMVLAVLEAHCGVKLSGHDVYLNVAGGLRIHEPAADLAAAAALVSSLVNAQLPTDAVYFGEISLSGVVRPVAQTPARLKEAAKLGFQRAVLPESARGEAGGDAGLSLNAVNSLTTLVAEIAARGSRRGESGGSAEKNATPARFRRGEGLEHHHHHH” the entry was “failed”. Turning to “MAKNYDQLAKTIIKDVGGKDNVNSVVHCATRLRFKLKDEKKADDDALKNTDGVVTVVKAGGQYQVVIGNEVADVYDAVLKEGGFSGGGEVPDDYSEDDNSSFVDKAVALISGIFTDILAPLSAGGIIKGLVVLAAAMGWLSTSSGAYQILYAIGDSIFYFLPIFLGVTAARRFHMNQFIGLAIGATLTYPTMVQLAASKTVLGTLFAGTPFASQIHTTFFGIPVITMNYTSTVLPVLFAVWFASIIEHWSKKWIPSVVQMFLVPVVTMIITLPIAFIVIGPVMTWVGNAIGAVMSGIYHFSPIIAGLLLGGLWQVLVIFGVHWGIVAVTTADLAALGYDPILGMTCMVCYAQIGVVLAIIKQTKDKKLKENATGAFFSGLFGVTEPAIYGITLPRKRPFVLSCIAGAVSGAIIGAFHSVLYILPSMGFFAIPAYINPKGGSMTQIIGVIIAGVVAFIVGFALQMLFGKKSVDAKYDKKQTEKVEVNETLQTTPDVATATLASPENGQIMPLSEVKDDVFSSGAMGKGIAIEPSDGVLHAPADGKIIMTFKTGHAIGMKTKNGAEILMHIGMDTANLQGKGFDTLVEKDQKVKAGDPLIKFDIDLIKKAGYPVTTPMVVTNSQDFDDIKQIVKGEVKVGQAVLELEAPEAKDVTTSVNGQVQLN”, the protein production result was “failed”. With “MAKPGFRLALFATLLALIVVLLGAYTRLTHAGLGCPDWPGCYGFISVPKGEAQLAHAELHFPDTPVEAHKGWNEMIHRYFAGTLGLLIVLLAARAWTHRRHPGQPLKLPLFLLAVVFAQAAFGMWTVTLKLWPQVVTAHLLGGFATLSLLFLLTLRLSGVLPALIVPRRLQYWATAGLVLVIGQIALGGWVSSNYAAVACIDLPTCHGQWWPNMDFANGFHLTQHIGPNYLGGQLDSDARTAIHMTHRVGAVLVTLVLLGLAWQLRQTGMTRLAGLVLVALGAQVSLGLSNVFFHLPLPVAVAHNAGGAALLLTLVLVNYHARTSLVRARDRLPLGWRLSPRKQMAGPITIKGEMPWRL”, the protein production entry is on record as “failed”. With “MAKRGREAKSAERTRQLAESEARLRLMADAAPFPLAMNRLAGGELIYANARAEELFGARLRPDRPLRVQDFYAEPAEREKVARALLEGRAVRDREVRLRDAGGRPFWALVSCELVQSGETWYVINGVNDISERKRLEQSLQDANAALRSHLREIELLQQGLREQALRDPLTGLFNRRHLDDILPRVLAHMLALHREVAVLMVDADHFKRINDTYGHRCGDAVLTALGACLSDHFRSGDIVCRYGGEEFFVLLPGATLEAAYAKAEGLRRAVGERPMEALGHSLAVTLSIGLALCPLHGSDAESVVRAADEALYQAKRQGRDRVCVAARLQSLLS”, the protein production entry is recorded as “failed”.
